Measured values as given in patent US20110118447A1.

Target: binding partner of C5A (XPA23)
Experiment: Biacore K-off

Row | fold difference in affinity vs original [fold] | Binder
1 | 0.78 | C5A (XPA23) VL T52L (antibody, V domains shown) VH: EVQLLESGGGLVQPGGSLRLSCAASGFTFSKYFMFWVRQAPGKGLEWVSVISPSGGMTRYADSVKGRFTISRDNSKNTLYLQMNSLRAEDTAVYYCARVGYGGNSDYWGQGTLVTVSS VL: DIQMTQSPSSVSASVGDRLTIICRASQDINRWLAWYQQTPGNAPKLLIHSALSLQSGVPSRFSGSGSGTDFTLTINSLQPEDFATYYCQQADSFPLTFGGGTKVEIK
2 | 1.11 | C5A (XPA23) VL S53W (antibody, V domains shown) VH: EVQLLESGGGLVQPGGSLRLSCAASGFTFSKYFMFWVRQAPGKGLEWVSVISPSGGMTRYADSVKGRFTISRDNSKNTLYLQMNSLRAEDTAVYYCARVGYGGNSDYWGQGTLVTVSS VL: DIQMTQSPSSVSASVGDRLTIICRASQDINRWLAWYQQTPGNAPKLLIHSATWLQSGVPSRFSGSGSGTDFTLTINSLQPEDFATYYCQQADSFPLTFGGGTKVEIK
3 | 1.08 | C5A (XPA23) VL T52P (antibody, V domains shown) VH: EVQLLESGGGLVQPGGSLRLSCAASGFTFSKYFMFWVRQAPGKGLEWVSVISPSGGMTRYADSVKGRFTISRDNSKNTLYLQMNSLRAEDTAVYYCARVGYGGNSDYWGQGTLVTVSS VL: DIQMTQSPSSVSASVGDRLTIICRASQDINRWLAWYQQTPGNAPKLLIHSAPSLQSGVPSRFSGSGSGTDFTLTINSLQPEDFATYYCQQADSFPLTFGGGTKVEIK
4 | 1.42 | C5A (XPA23) VL S53V (antibody, V domains shown) VH: EVQLLESGGGLVQPGGSLRLSCAASGFTFSKYFMFWVRQAPGKGLEWVSVISPSGGMTRYADSVKGRFTISRDNSKNTLYLQMNSLRAEDTAVYYCARVGYGGNSDYWGQGTLVTVSS VL: DIQMTQSPSSVSASVGDRLTIICRASQDINRWLAWYQQTPGNAPKLLIHSATVLQSGVPSRFSGSGSGTDFTLTINSLQPEDFATYYCQQADSFPLTFGGGTKVEIK
5 | 0.87 | C5A (XPA23) VL T52W (antibody, V domains shown) VH: EVQLLESGGGLVQPGGSLRLSCAASGFTFSKYFMFWVRQAPGKGLEWVSVISPSGGMTRYADSVKGRFTISRDNSKNTLYLQMNSLRAEDTAVYYCARVGYGGNSDYWGQGTLVTVSS VL: DIQMTQSPSSVSASVGDRLTIICRASQDINRWLAWYQQTPGNAPKLLIHSAWSLQSGVPSRFSGSGSGTDFTLTINSLQPEDFATYYCQQADSFPLTFGGGTKVEIK
6 | 1.07 | C5A (XPA23) VL S53A (antibody, V domains shown) VH: EVQLLESGGGLVQPGGSLRLSCAASGFTFSKYFMFWVRQAPGKGLEWVSVISPSGGMTRYADSVKGRFTISRDNSKNTLYLQMNSLRAEDTAVYYCARVGYGGNSDYWGQGTLVTVSS VL: DIQMTQSPSSVSASVGDRLTIICRASQDINRWLAWYQQTPGNAPKLLIHSATALQSGVPSRFSGSGSGTDFTLTINSLQPEDFATYYCQQADSFPLTFGGGTKVEIK
7 | 1.42 | C5A (XPA23) VL S53I (antibody, V domains shown) VH: EVQLLESGGGLVQPGGSLRLSCAASGFTFSKYFMFWVRQAPGKGLEWVSVISPSGGMTRYADSVKGRFTISRDNSKNTLYLQMNSLRAEDTAVYYCARVGYGGNSDYWGQGTLVTVSS VL: DIQMTQSPSSVSASVGDRLTIICRASQDINRWLAWYQQTPGNAPKLLIHSATILQSGVPSRFSGSGSGTDFTLTINSLQPEDFATYYCQQADSFPLTFGGGTKVEIK
8 | 0.39 | C5A (XPA23) VL A91L (antibody, V domains shown) VH: EVQLLESGGGLVQPGGSLRLSCAASGFTFSKYFMFWVRQAPGKGLEWVSVISPSGGMTRYADSVKGRFTISRDNSKNTLYLQMNSLRAEDTAVYYCARVGYGGNSDYWGQGTLVTVSS VL: DIQMTQSPSSVSASVGDRLTIICRASQDINRWLAWYQQTPGNAPKLLIHSATSLQSGVPSRFSGSGSGTDFTLTINSLQPEDFATYYCQQLDSFPLTFGGGTKVEIK
9 | 1.03 | C5A (XPA23) VL S53G (antibody, V domains shown) VH: EVQLLESGGGLVQPGGSLRLSCAASGFTFSKYFMFWVRQAPGKGLEWVSVISPSGGMTRYADSVKGRFTISRDNSKNTLYLQMNSLRAEDTAVYYCARVGYGGNSDYWGQGTLVTVSS VL: DIQMTQSPSSVSASVGDRLTIICRASQDINRWLAWYQQTPGNAPKLLIHSATGLQSGVPSRFSGSGSGTDFTLTINSLQPEDFATYYCQQADSFPLTFGGGTKVEIK
10 | 0.99 | C5A (XPA23) VL S53L (antibody, V domains shown) VH: EVQLLESGGGLVQPGGSLRLSCAASGFTFSKYFMFWVRQAPGKGLEWVSVISPSGGMTRYADSVKGRFTISRDNSKNTLYLQMNSLRAEDTAVYYCARVGYGGNSDYWGQGTLVTVSS VL: DIQMTQSPSSVSASVGDRLTIICRASQDINRWLAWYQQTPGNAPKLLIHSATLLQSGVPSRFSGSGSGTDFTLTINSLQPEDFATYYCQQADSFPLTFGGGTKVEIK
11 | 1.05 | C5A (XPA23) VL T52F (antibody, V domains shown) VH: EVQLLESGGGLVQPGGSLRLSCAASGFTFSKYFMFWVRQAPGKGLEWVSVISPSGGMTRYADSVKGRFTISRDNSKNTLYLQMNSLRAEDTAVYYCARVGYGGNSDYWGQGTLVTVSS VL: DIQMTQSPSSVSASVGDRLTIICRASQDINRWLAWYQQTPGNAPKLLIHSAFSLQSGVPSRFSGSGSGTDFTLTINSLQPEDFATYYCQQADSFPLTFGGGTKVEIK
12 | 4.92 | C5A (XPA23) VL S53P (antibody, V domains shown) VH: EVQLLESGGGLVQPGGSLRLSCAASGFTFSKYFMFWVRQAPGKGLEWVSVISPSGGMTRYADSVKGRFTISRDNSKNTLYLQMNSLRAEDTAVYYCARVGYGGNSDYWGQGTLVTVSS VL: DIQMTQSPSSVSASVGDRLTIICRASQDINRWLAWYQQTPGNAPKLLIHSATPLQSGVPSRFSGSGSGTDFTLTINSLQPEDFATYYCQQADSFPLTFGGGTKVEIK
13 | 1.24 | C5A (XPA23) VL S53F (antibody, V domains shown) VH: EVQLLESGGGLVQPGGSLRLSCAASGFTFSKYFMFWVRQAPGKGLEWVSVISPSGGMTRYADSVKGRFTISRDNSKNTLYLQMNSLRAEDTAVYYCARVGYGGNSDYWGQGTLVTVSS VL: DIQMTQSPSSVSASVGDRLTIICRASQDINRWLAWYQQTPGNAPKLLIHSATFLQSGVPSRFSGSGSGTDFTLTINSLQPEDFATYYCQQADSFPLTFGGGTKVEIK
14 | 0.26 | C5A (XPA23) VL D92G (antibody, V domains shown) VH: EVQLLESGGGLVQPGGSLRLSCAASGFTFSKYFMFWVRQAPGKGLEWVSVISPSGGMTRYADSVKGRFTISRDNSKNTLYLQMNSLRAEDTAVYYCARVGYGGNSDYWGQGTLVTVSS VL: DIQMTQSPSSVSASVGDRLTIICRASQDINRWLAWYQQTPGNAPKLLIHSATSLQSGVPSRFSGSGSGTDFTLTINSLQPEDFATYYCQQAGSFPLTFGGGTKVEIK
15 | 0.51 | C5A (XPA23) VL A91V (antibody, V domains shown) VH: EVQLLESGGGLVQPGGSLRLSCAASGFTFSKYFMFWVRQAPGKGLEWVSVISPSGGMTRYADSVKGRFTISRDNSKNTLYLQMNSLRAEDTAVYYCARVGYGGNSDYWGQGTLVTVSS VL: DIQMTQSPSSVSASVGDRLTIICRASQDINRWLAWYQQTPGNAPKLLIHSATSLQSGVPSRFSGSGSGTDFTLTINSLQPEDFATYYCQQVDSFPLTFGGGTKVEIK
